In the supplement of paper PMC9112550, “Optimization of the antimicrobial peptide Bac7 by deep mutational scanning” (BMC Biology, 2022):

Each sequence was assayed on Escherichia coli TOP10 (assay: shrunken log2 fold change of peptide-encoding DNA abundance (4.5 h post-induction vs induction); higher = less antimicrobial activity (less host growth inhibition)). Conditions: time post-induction: 4.5 h; library: site-saturation at positions 5, 18, 19, 20.
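Also: peptides expressed intracellularly from a pBAD plasmid library in pooled LB shake-flask culture, induced with 0.3% L-arabinose, DNA abundance read by NGS, three biological replicates, DESeq2 with apeglm shrinkage.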

For RRIRARPPRLPRPRPRPRFSPRP, which “shrunken log2 fold change” value is on record?
Its value is 0.308.

With RRIRHRPPRLPRPRPRPTRSPRP as the sequence, how does the “shrunken log2 fold change” value read?
Its value is -0.0409.

Which “shrunken log2 fold change” value does the source give for RRIRWRPPRLPRPRPRPHFTPRP here?
Its value is -0.306.

With RRIRARPPRLPRPRPRPIFPPRP as the sequence, how does the “shrunken log2 fold change” value read?
Its value is 0.32.

For RRIRFRPPRLPRPRPRPVGYPRP, which “shrunken log2 fold change” value is on record?
The value was -0.129.

Which “shrunken log2 fold change” value does the source give for RRIRDRPPRLPRPRPRPIPFPRP here?
Its value is -0.306.

For RRIRDRPPRLPRPRPRPINDPRP, which “shrunken log2 fold change” value is on record?
The value was 0.0753.

How did the “shrunken log2 fold change” value turn out when RRIRERPPRLPRPRPRPEGFPRP was run?
The value was -0.00351.

RRIRERPPRLPRPRPRPIAWPRP was tested. Which “shrunken log2 fold change” value did it give?
Its value is -0.199.

Which “shrunken log2 fold change” value does the source give for RRIRSRPPRLPRPRPRPHWCPRP here?
The value was -0.125.

Which “shrunken log2 fold change” value does the source give for RRIRLRPPRLPRPRPRPKQCPRP here?
Its value is -0.0836.

Which “shrunken log2 fold change” value does the source give for RRIRNRPPRLPRPRPRPEKNPRP here?
Its value is 0.907.

With RRIRTRPPRLPRPRPRPWHTPRP as the sequence, how does the “shrunken log2 fold change” value read?
Its value is -0.0217.

How did the “shrunken log2 fold change” value turn out when RRIRRRPPRLPRPRPRPNILPRP was run?
Its value is -0.0406.

With RRIRYRPPRLPRPRPRPLMPPRP as the sequence, how does the “shrunken log2 fold change” value read?
The value was -0.931.

How did the “shrunken log2 fold change” value turn out when RRIRMRPPRLPRPRPRPRTQPRP was run?
Its value is 0.97.

How did the “shrunken log2 fold change” value turn out when RRIRMRPPRLPRPRPRPTKNPRP was run?
The value was 1.35.

With RRIRARPPRLPRPRPRPPWWPRP as the sequence, how does the “shrunken log2 fold change” value read?
The value was 1.03.

Which “shrunken log2 fold change” value does the source give for RRIRDRPPRLPRPRPRPCVCPRP here?
The value was -0.0348.

With RRIRNRPPRLPRPRPRPLYDPRP as the sequence, how does the “shrunken log2 fold change” value read?
The value was -0.0765.

Which “shrunken log2 fold change” value does the source give for RRIRDRPPRLPRPRPRPVHYPRP here?
The value was 0.0175.

With RRIRMRPPRLPRPRPRPNNTPRP as the sequence, how does the “shrunken log2 fold change” value read?
Its value is -0.292.

For RRIRDRPPRLPRPRPRPVRMPRP, which “shrunken log2 fold change” value is on record?
Its value is 0.059.

Which “shrunken log2 fold change” value does the source give for RRIRQRPPRLPRPRPRPHRRPRP here?
The value was -0.185.

How did the “shrunken log2 fold change” value turn out when RRIRYRPPRLPRPRPRPVFQPRP was run?
Its value is -0.503.

For RRIRSRPPRLPRPRPRPNTNPRP, which “shrunken log2 fold change” value is on record?
The value was -0.0164.

For RRIRTRPPRLPRPRPRPIDMPRP, which “shrunken log2 fold change” value is on record?
Its value is 0.00748.

RRIRERPPRLPRPRPRPAVCPRP was tested. Which “shrunken log2 fold change” value did it give?
The value was 0.086.

With RRIRLRPPRLPRPRPRPQVKPRP as the sequence, how does the “shrunken log2 fold change” value read?
The value was -0.319.

For RRIRSRPPRLPRPRPRPYNDPRP, which “shrunken log2 fold change” value is on record?
The value was -0.41.

Which “shrunken log2 fold change” value does the source give for RRIRARPPRLPRPRPRPQWNPRP here?
The value was -0.00397.

How did the “shrunken log2 fold change” value turn out when RRIRDRPPRLPRPRPRPWSHPRP was run?
The value was 0.0226.

With RRIRIRPPRLPRPRPRPHVWPRP as the sequence, how does the “shrunken log2 fold change” value read?
The value was -0.287.

With RRIRSRPPRLPRPRPRPHFSPRP as the sequence, how does the “shrunken log2 fold change” value read?
The value was -0.112.

With RRIRIRPPRLPRPRPRPLVGPRP as the sequence, how does the “shrunken log2 fold change” value read?
The value was -0.0442.

RRIRPRPPRLPRPRPRPWGMPRP was tested. Which “shrunken log2 fold change” value did it give?
The value was -0.128.

RRIRDRPPRLPRPRPRPLGPPRP was tested. Which “shrunken log2 fold change” value did it give?
Its value is 0.191.

With RRIRGRPPRLPRPRPRPYDMPRP as the sequence, how does the “shrunken log2 fold change” value read?
Its value is -0.0187.

Which “shrunken log2 fold change” value does the source give for RRIRCRPPRLPRPRPRPGHDPRP here?
The value was -0.00827.

For RRIRHRPPRLPRPRPRPLIHPRP, which “shrunken log2 fold change” value is on record?
Its value is -0.575.

RRIRPRPPRLPRPRPRPHKPPRP was tested. Which “shrunken log2 fold change” value did it give?
The value was -0.0376.

How did the “shrunken log2 fold change” value turn out when RRIRVRPPRLPRPRPRPVLDPRP was run?
The value was -0.145.

How did the “shrunken log2 fold change” value turn out when RRIRERPPRLPRPRPRPMRMPRP was run?
Its value is -0.0542.

How did the “shrunken log2 fold change” value turn out when RRIRARPPRLPRPRPRPSHMPRP was run?
The value was -0.184.

Which “shrunken log2 fold change” value does the source give for RRIRIRPPRLPRPRPRPGNAPRP here?
The value was -0.0762.

With RRIRRRPPRLPRPRPRPMEMPRP as the sequence, how does the “shrunken log2 fold change” value read?
The value was -0.0817.

Which “shrunken log2 fold change” value does the source give for RRIRNRPPRLPRPRPRPCTWPRP here?
The value was 0.0117.

RRIRVRPPRLPRPRPRPSWDPRP was tested. Which “shrunken log2 fold change” value did it give?
Its value is 0.192.

With RRIRMRPPRLPRPRPRPLLMPRP as the sequence, how does the “shrunken log2 fold change” value read?
The value was 0.205.

How did the “shrunken log2 fold change” value turn out when RRIRSRPPRLPRPRPRPVTGPRP was run?
The value was 0.255.

RRIRQRPPRLPRPRPRPHWQPRP was tested. Which “shrunken log2 fold change” value did it give?
The value was -0.147.

For RRIRLRPPRLPRPRPRPGLLPRP, which “shrunken log2 fold change” value is on record?
Its value is 0.0272.

Which “shrunken log2 fold change” value does the source give for RRIRVRPPRLPRPRPRPSFVPRP here?
Its value is -0.422.

RRIRPRPPRLPRPRPRPPSRPRP was tested. Which “shrunken log2 fold change” value did it give?
The value was 0.353.

How did the “shrunken log2 fold change” value turn out when RRIRPRPPRLPRPRPRPTTAPRP was run?
Its value is 0.0804.

RRIRARPPRLPRPRPRPESYPRP was tested. Which “shrunken log2 fold change” value did it give?
Its value is 1.13.

For RRIRARPPRLPRPRPRPHGIPRP, which “shrunken log2 fold change” value is on record?
The value was 0.0225.

For RRIRPRPPRLPRPRPRPMWPPRP, which “shrunken log2 fold change” value is on record?
Its value is 0.213.

How did the “shrunken log2 fold change” value turn out when RRIRQRPPRLPRPRPRPTKMPRP was run?
Its value is -0.239.

RRIRSRPPRLPRPRPRPPPYPRP was tested. Which “shrunken log2 fold change” value did it give?
The value was 0.337.

RRIRKRPPRLPRPRPRPLATPRP was tested. Which “shrunken log2 fold change” value did it give?
The value was 0.527.

For RRIRLRPPRLPRPRPRPPDQPRP, which “shrunken log2 fold change” value is on record?
The value was 0.349.

How did the “shrunken log2 fold change” value turn out when RRIRSRPPRLPRPRPRPDYLPRP was run?
Its value is -0.0749.

How did the “shrunken log2 fold change” value turn out when RRIRKRPPRLPRPRPRPERIPRP was run?
Its value is 0.00934.

Which “shrunken log2 fold change” value does the source give for RRIRARPPRLPRPRPRPDTLPRP here?
Its value is -0.0794.

With RRIRFRPPRLPRPRPRPALIPRP as the sequence, how does the “shrunken log2 fold change” value read?
Its value is -0.00983.

RRIRPRPPRLPRPRPRPCGRPRP was tested. Which “shrunken log2 fold change” value did it give?
Its value is 0.302.

Which “shrunken log2 fold change” value does the source give for RRIRNRPPRLPRPRPRPAMVPRP here?
The value was -0.0286.

With RRIRKRPPRLPRPRPRPPRHPRP as the sequence, how does the “shrunken log2 fold change” value read?
The value was 1.04.

For RRIRGRPPRLPRPRPRPQKQPRP, which “shrunken log2 fold change” value is on record?
Its value is 0.154.

RRIRERPPRLPRPRPRPAGCPRP was tested. Which “shrunken log2 fold change” value did it give?
The value was -0.0935.

Which “shrunken log2 fold change” value does the source give for RRIRNRPPRLPRPRPRPLTRPRP here?
Its value is 0.0454.

Which “shrunken log2 fold change” value does the source give for RRIRVRPPRLPRPRPRPWNLPRP here?
The value was -0.14.

With RRIRSRPPRLPRPRPRPENSPRP as the sequence, how does the “shrunken log2 fold change” value read?
Its value is -0.0239.

Which “shrunken log2 fold change” value does the source give for RRIRQRPPRLPRPRPRPIIYPRP here?
Its value is -0.858.
